The chains are these.
B1: Peroxisome proliferator-activated receptor delta, residues 71 to 145; numbered along this chain, Q03181 (parent)
chain: NMECRVCGDKASGFHYGVHACEGCKGFFRRTIRMKLEYEKCERSCKIQKKNRNKCQYCRFQKCLALGMSHNAIRF

± gives the uncertainty stated by the source.

In this data set the parent is B1. The experiment in a line: abundance fitness (aPCA) (normalised: wild type 0, dead -1); higher = more abundant; growth selection in yeast, the domain comes from the species named. To be noted: Homo sapiens.
On to NMECRVCGDKASGFHYGVHACEGCKGFFTRTIRMKLEYEKCERSCKIQKKNRNKCQYCRFQKCLALGMSHNAIRF, for which the abundance fitness is 0.197 ± 0.044. NMECRVCGDKASGFHYGVHACEGCKGFFPRTIRMKLEYEKCERSCKIQKKNRNKCQYCRFQKCLALGMSHNAIRF: the abundance fitness was -0.901 ± 0.13. With NMECRVCGDKASGFHYGVHACEGCKGFFVRTIRMKLEYEKCERSCKIQKKNRNKCQYCRFQKCLALGMSHNAIRF the figure was 0.105 ± 0.039. With NMECRVCGDKASGFHYGVHACEGCKGFFKRTIRMKLEYEKCERSCKIQKKNRNKCQYCRFQKCLALGMSHNAIRF the figure was 0.026 ± 0.06; with NMECRVCGDKASGFHYGVHACEGCKGFFYRTIRMKLEYEKCERSCKIQKKNRNKCQYCRFQKCLALGMSHNAIRF, -0.089 ± 0.086. To NMECRVCGDKASGFHYGVHACEGCKGFFWRTIRMKLEYEKCERSCKIQKKNRNKCQYCRFQKCLALGMSHNAIRF belongs 0.164 ± 0.045. For NMECRVCGDKASGFHYGVHACEGCKGFFCRTIRMKLEYEKCERSCKIQKKNRNKCQYCRFQKCLALGMSHNAIRF, the abundance fitness was -0.009 ± 0.064.

NMECRVCGDKASGFHYGVHACEGCKGFFFRTIRMKLEYEKCERSCKIQKKNRNKCQYCRFQKCLALGMSHNAIRF: the abundance fitness is 0.142 ± 0.095. With NMECRVCGDKASGFHYGVHACEGCKGFFERTIRMKLEYEKCERSCKIQKKNRNKCQYCRFQKCLALGMSHNAIRF the figure was 0.258 ± 0.043. Take NMECRVCGDKASGFHYGVHACEGCKGFFNRTIRMKLEYEKCERSCKIQKKNRNKCQYCRFQKCLALGMSHNAIRF: the abundance fitness was found to be 0.085 ± 0.066. To NMECRVCGDKASGFHYGVHACEGCKGFFGRTIRMKLEYEKCERSCKIQKKNRNKCQYCRFQKCLALGMSHNAIRF belongs 0.09 ± 0.03. With NMECRVCGDKASGFHYGVHACEGCKGFFQRTIRMKLEYEKCERSCKIQKKNRNKCQYCRFQKCLALGMSHNAIRF the figure was 0.168 ± 0.045; with NMECRVCGDKASGFHYGVHACEGCKGFFDRTIRMKLEYEKCERSCKIQKKNRNKCQYCRFQKCLALGMSHNAIRF, 0.131 ± 0.056. Take NMECRVCGDKASGFHYGVHACEGCKGFPRRTIRMKLEYEKCERSCKIQKKNRNKCQYCRFQKCLALGMSHNAIRF: the abundance fitness was -0.406 ± 0.077.

As for NMECRVCGDKASGFHYGVHACEGCKGFVRRTIRMKLEYEKCERSCKIQKKNRNKCQYCRFQKCLALGMSHNAIRF, the abundance fitness was -0.538 ± 0.067. To NMECRVCGDKASGFHYGVHACEGCKGFERRTIRMKLEYEKCERSCKIQKKNRNKCQYCRFQKCLALGMSHNAIRF belongs -0.667 ± 0.12; to NMECRVCGDKASGFHYGVHACEGCKGFYRRTIRMKLEYEKCERSCKIQKKNRNKCQYCRFQKCLALGMSHNAIRF, -0.159 ± 0.12; to NMECRVCGDKASGFHYGVHACEGCKGFCRRTIRMKLEYEKCERSCKIQKKNRNKCQYCRFQKCLALGMSHNAIRF, -0.882 ± 0.28. In the case of NMECRVCGDKASGFHYGVHACEGCKGFIRRTIRMKLEYEKCERSCKIQKKNRNKCQYCRFQKCLALGMSHNAIRF, the abundance fitness was -1.23 ± 0.49. To NMECRVCGDKASGFHYGVHACEGCKGFLRRTIRMKLEYEKCERSCKIQKKNRNKCQYCRFQKCLALGMSHNAIRF belongs -0.842 ± 0.11; to NMECRVCGDKASGFHYGVHACEGCKGFQRRTIRMKLEYEKCERSCKIQKKNRNKCQYCRFQKCLALGMSHNAIRF, -0.808 ± 0.14; to NMECRVCGDKASGFHYGVHACEGCKGFARRTIRMKLEYEKCERSCKIQKKNRNKCQYCRFQKCLALGMSHNAIRF, -0.603 ± 0.075. With NMECRVCGDKASGFHYGVHACEGCKGFKRRTIRMKLEYEKCERSCKIQKKNRNKCQYCRFQKCLALGMSHNAIRF, the abundance fitness is -0.758 ± 0.17.

With NMECRVCGDKASGFHYGVHACEGCKGFTRRTIRMKLEYEKCERSCKIQKKNRNKCQYCRFQKCLALGMSHNAIRF, the abundance fitness is -0.909 ± 0.18. To NMECRVCGDKASGFHYGVHACEGCKGFSRRTIRMKLEYEKCERSCKIQKKNRNKCQYCRFQKCLALGMSHNAIRF belongs -0.625 ± 0.083; to NMECRVCGDKASGFHYGVHACEGCKGFRRRTIRMKLEYEKCERSCKIQKKNRNKCQYCRFQKCLALGMSHNAIRF, -0.823 ± 0.091; to NMECRVCGDKASGFHYGVHACEGCKGFHRRTIRMKLEYEKCERSCKIQKKNRNKCQYCRFQKCLALGMSHNAIRF, -0.936 ± 0.33. With NMECRVCGDKASGFHYGVHACEGCKGFNRRTIRMKLEYEKCERSCKIQKKNRNKCQYCRFQKCLALGMSHNAIRF, the abundance fitness was -0.586 ± 0.16. To NMECRVCGDKASGFHYGVHACEGCKGFDRRTIRMKLEYEKCERSCKIQKKNRNKCQYCRFQKCLALGMSHNAIRF belongs -0.845 ± 0.2; to NMECRVCGDKASGFHYGVHACEGCKGFWRRTIRMKLEYEKCERSCKIQKKNRNKCQYCRFQKCLALGMSHNAIRF, -0.203 ± 0.054; to NMECRVCGDKASGFHYGVHACEGCKGFMRRTIRMKLEYEKCERSCKIQKKNRNKCQYCRFQKCLALGMSHNAIRF, -0.156 ± 0.081. With NMECRVCGDKASGFHYGVHACEGCKGFFRREIRMKLEYEKCERSCKIQKKNRNKCQYCRFQKCLALGMSHNAIRF the figure was -0.89 ± 0.17; with NMECRVCGDKASGFHYGVHACEGCKGFFRRAIRMKLEYEKCERSCKIQKKNRNKCQYCRFQKCLALGMSHNAIRF, -0.288 ± 0.051; with NMECRVCGDKASGFHYGVHACEGCKGFFRRGIRMKLEYEKCERSCKIQKKNRNKCQYCRFQKCLALGMSHNAIRF, -0.717 ± 0.085. In the case of NMECRVCGDKASGFHYGVHACEGCKGFFRRDIRMKLEYEKCERSCKIQKKNRNKCQYCRFQKCLALGMSHNAIRF, the abundance fitness was -0.663 ± 0.16. On to NMECRVCGDKASGFHYGVHACEGCKGFFRRCIRMKLEYEKCERSCKIQKKNRNKCQYCRFQKCLALGMSHNAIRF, for which the abundance fitness is -0.726 ± 0.14. To NMECRVCGDKASGFHYGVHACEGCKGFFRRFIRMKLEYEKCERSCKIQKKNRNKCQYCRFQKCLALGMSHNAIRF belongs -0.406 ± 0.15.

(Values after the Human Domainome abundance scans (Beltran et al. 2025).)
